According to patent US20200087367A1 (ACCELERON PHARMA, published 2020):
Blank lines part the entries; values can stand above or below the binder they belong to.

How the values were obtained:
ActRIIA-mFc = target: T1, ActRIIA-mFc (human, UniProt P27037 21-135); assay: SPR (Biacore), ligand amine-coupled to chip, Fc fusion injected
T1 construct: not shown: linker and mouse Fc domain

BMP10pro(22-312)-mFc = target: T2, BMP10pro(22-312)-mFc (human, UniProt O95393 22-312); assay: SPR (Biacore), BMP10pro-Fc captured by anti-Fc antibody, ligand injected
T2 construct: also called mouse Fc equivalent construct; not shown: optional linker and mouse immunoglobulin G1 Fc domain
T2 sequence: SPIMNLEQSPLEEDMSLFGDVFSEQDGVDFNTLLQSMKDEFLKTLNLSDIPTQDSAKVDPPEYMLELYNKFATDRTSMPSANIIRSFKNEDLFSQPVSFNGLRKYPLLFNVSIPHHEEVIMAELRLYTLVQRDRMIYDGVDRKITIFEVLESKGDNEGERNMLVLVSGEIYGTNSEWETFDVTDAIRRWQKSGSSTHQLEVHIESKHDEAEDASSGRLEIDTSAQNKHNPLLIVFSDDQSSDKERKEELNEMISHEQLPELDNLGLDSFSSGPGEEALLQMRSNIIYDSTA
Method: (§1) The BMP10pro-Fc proteins were separately was captured onto the system using an anti-Fc antibody, and ligands were injected and allowed to flow over the captured receptor protein. […] The mouse Fc equivalent constructs behaved similarly. […] The affinity of BMP10pro(22-315)-hFc for BMP3b was not assessed.

BMP10pro(22-315)-mFc = target: T3, BMP10pro(22-315)-mFc (human, UniProt O95393 22-315); assay: as above
T3 construct: also called mouse Fc equivalent construct; not shown: optional linker and mouse immunoglobulin G1 Fc domain
T3 sequence: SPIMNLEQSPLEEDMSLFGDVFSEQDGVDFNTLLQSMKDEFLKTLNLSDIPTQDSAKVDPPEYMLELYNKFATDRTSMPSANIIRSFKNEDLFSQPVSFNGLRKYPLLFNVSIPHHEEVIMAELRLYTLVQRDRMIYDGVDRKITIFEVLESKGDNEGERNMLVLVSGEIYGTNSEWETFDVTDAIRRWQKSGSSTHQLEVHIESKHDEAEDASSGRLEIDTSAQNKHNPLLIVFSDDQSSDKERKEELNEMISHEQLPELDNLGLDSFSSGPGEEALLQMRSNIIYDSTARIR
Method: as §1

ActRIIB-mFc = target: T4, ActRIIB-mFc (human, UniProt Q13705 20-134); assay: SPR (Biacore), ligand amine-coupled to CM5 chip, Fc fusion injected
T4 sequence: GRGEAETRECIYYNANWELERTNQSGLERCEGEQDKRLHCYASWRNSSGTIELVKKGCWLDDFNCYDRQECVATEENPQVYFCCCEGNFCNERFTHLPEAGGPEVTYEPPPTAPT

hENG(26-329)-hFc = target: T5, hENG(26-329)-hFc (human, UniProt P17813 26-329); assay: SPR, captured hENG-hFc, soluble BMP10; '-' = Binding undetectable
T5 construct: HEK 293, purified; not shown: linker and human IgG1 Fc domain
T5 sequence: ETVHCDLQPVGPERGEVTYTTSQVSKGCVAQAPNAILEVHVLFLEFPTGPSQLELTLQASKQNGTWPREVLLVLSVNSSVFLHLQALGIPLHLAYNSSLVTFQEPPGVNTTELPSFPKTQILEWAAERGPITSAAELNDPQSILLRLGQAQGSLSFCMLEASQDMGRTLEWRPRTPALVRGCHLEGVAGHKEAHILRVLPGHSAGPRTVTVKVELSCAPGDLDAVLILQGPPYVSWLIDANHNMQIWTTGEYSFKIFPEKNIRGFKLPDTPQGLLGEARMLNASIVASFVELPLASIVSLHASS
Method: (§2) SPR methodology was used to screen these hENG-hFc protein variants for high-affinity binding to human BMP9 and BMP10. In these experiments, captured hENG-hFc proteins were exposed to soluble BMP9 or BMP10 at 100 nM each.

hENG(360-586)-hFc = target: T6, hENG(360-586)-hFc (human, UniProt P17813 360-586); assay: as above
T6 construct: HEK 293, purified; not shown: linker and human IgG1 Fc domain
T6 sequence: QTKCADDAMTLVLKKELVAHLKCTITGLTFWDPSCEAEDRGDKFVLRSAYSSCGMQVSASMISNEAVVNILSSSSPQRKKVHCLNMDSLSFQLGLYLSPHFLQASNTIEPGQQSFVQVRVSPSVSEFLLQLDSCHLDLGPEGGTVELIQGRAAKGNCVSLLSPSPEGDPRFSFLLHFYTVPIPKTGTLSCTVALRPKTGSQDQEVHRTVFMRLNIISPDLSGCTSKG
Method: as §2

hENG(458-581)-hFc = target: T7, hENG(458-581)-hFc (human, UniProt P17813 458-581); assay: as above
T7 construct: Expressed in COS cells, not purified; not shown: linker and human IgG1 Fc domain
T7 sequence: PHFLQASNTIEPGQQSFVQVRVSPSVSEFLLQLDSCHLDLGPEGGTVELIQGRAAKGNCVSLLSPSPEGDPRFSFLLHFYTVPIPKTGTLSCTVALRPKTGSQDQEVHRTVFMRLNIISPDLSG
Method: as §2

hENG(458-586)-hFc = target: T8, hENG(458-586)-hFc (human, UniProt P17813 458-586); assay: as above
T8 construct: Expressed in COS cells, not purified; not shown: linker and human IgG1 Fc domain
T8 sequence: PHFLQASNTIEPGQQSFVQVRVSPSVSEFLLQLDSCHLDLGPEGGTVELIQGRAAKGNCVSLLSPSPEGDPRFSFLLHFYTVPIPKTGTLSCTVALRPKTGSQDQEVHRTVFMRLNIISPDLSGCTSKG
Method: as §2

hENG(438-586)-hFc = target: T9, hENG(438-586)-hFc (human, UniProt P17813 438-586); assay: as above
T9 construct: HEK 293, purified; not shown: linker and human IgG1 Fc domain
T9 sequence: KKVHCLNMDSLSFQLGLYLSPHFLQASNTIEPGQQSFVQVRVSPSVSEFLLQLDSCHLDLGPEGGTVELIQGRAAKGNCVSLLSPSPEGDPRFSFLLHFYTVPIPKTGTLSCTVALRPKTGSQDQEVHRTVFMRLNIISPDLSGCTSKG
Method: as §2

hENG(360-581)-hFc = target: T10, hENG(360-581)-hFc (human, UniProt P17813 360-581); assay: as above
T10 construct: HEK 293, purified; not shown: linker and human IgG1 Fc domain
T10 sequence: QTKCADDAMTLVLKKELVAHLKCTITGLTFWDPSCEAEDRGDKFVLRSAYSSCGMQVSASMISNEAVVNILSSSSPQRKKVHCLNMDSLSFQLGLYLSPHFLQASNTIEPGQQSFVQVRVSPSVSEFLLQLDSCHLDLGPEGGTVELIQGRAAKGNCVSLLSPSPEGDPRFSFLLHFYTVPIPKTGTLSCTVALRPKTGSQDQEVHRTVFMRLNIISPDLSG
Method: as §2

T1 sequence (P27037 21-135): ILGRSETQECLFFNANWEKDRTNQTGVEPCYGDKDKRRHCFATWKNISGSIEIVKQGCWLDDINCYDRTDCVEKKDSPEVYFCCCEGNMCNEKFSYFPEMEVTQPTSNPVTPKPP

- binding result (ActRIIA-mFc): binds
- binding result (BMP10pro(22-312)-mFc): binds
- binding result (BMP10pro(22-315)-mFc): binds
- binding result (ActRIIB-mFc): binds
B1: BMP9 (ligand, human, UniProt Q9UK05 320-429, looked up)
chain: SAGAGSHCQKTSLRVNFEDIGWDSWIIAPKEYEAYECKGGCFFPLADDVTPTKHAIVQTLVHLKFPTKVGKACCVPTKLSPISVLYKDDMGVPTLKYHYEGMSVAECGCR
notes: also called hBMP-9; hBMP9

- binding result (hENG(26-329)-hFc): no binding (tested: 100 nM)
- binding result (hENG(360-586)-hFc): no binding (tested: 100 nM)
- binding result (hENG(458-581)-hFc): no binding (tested: 100 nM)
- binding result (hENG(458-586)-hFc): no binding (tested: 100 nM)
- binding result (hENG(438-586)-hFc): no binding (tested: 100 nM)
- binding result (hENG(360-581)-hFc): no binding (tested: 100 nM)
- binding result (ActRIIA-mFc): binds
- binding result (BMP10pro(22-312)-mFc): binds
- binding result (BMP10pro(22-315)-mFc): binds
- binding result (ActRIIB-mFc): binds
B2: BMP10 (ligand)
chain: NAKGNYCKRTPLYIDFKEIGWDSWIIAPPGYEAYECRGVCNYPLAEHLTPTKHAIIQALVHLKNSQKASKACCVPTKLEPISILYLDKGVVTYKFKYEGMAVSECGCR
notes: also called hBMP-10; hBMP10
